Experimental data from patent US20240043551A1 (ADLAI NORTYE BIOPHARMA, published 2024).

Legend:
[1] = biological target: T1, Full length human TNFR2 on Jurkat E6-1 cells (Clone NO.3) (human, UniProt P20333 23-461); test: FACS on human TNFR2+ Jurkat Clone No.3, biotinylated antibody with streptavidin-PE
T1 construct: whole, on cells; also called human TNFR2+ Jurkat cells; hTNFR2 Jurkat
T1 sequence (looked up): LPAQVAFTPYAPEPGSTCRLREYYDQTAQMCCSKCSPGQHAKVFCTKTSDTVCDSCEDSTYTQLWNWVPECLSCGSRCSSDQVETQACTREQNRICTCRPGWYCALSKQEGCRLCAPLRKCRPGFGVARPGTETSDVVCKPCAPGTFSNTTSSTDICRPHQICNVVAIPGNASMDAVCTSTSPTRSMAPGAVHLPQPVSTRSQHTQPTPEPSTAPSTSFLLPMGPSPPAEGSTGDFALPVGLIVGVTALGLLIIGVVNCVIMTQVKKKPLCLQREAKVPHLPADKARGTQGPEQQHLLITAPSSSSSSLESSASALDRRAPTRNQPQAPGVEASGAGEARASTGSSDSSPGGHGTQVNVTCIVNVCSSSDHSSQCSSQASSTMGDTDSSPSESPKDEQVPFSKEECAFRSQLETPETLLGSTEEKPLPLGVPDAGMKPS
Method: FACS analysis was used to evaluate the binding of purified anti-TNFR2 antibody candidates produced from example 6 to cell surface TNFR2 target. Anti-human TNFR2 antibodies and negative control IgG were biotinylated using a EZ-Link™ Micro Sulfo-NHS-Biotinylation Kit (Thermo Fisher Scientific, 21925) according to manufacturer's instructions. Biotinylated antibodies (100 μg/mL) were then incubated with Halt™ Protease Inhibitor Cocktail (100X, Thermo Scientific, 1862209) and 80 μg/mL Streptavidin-R-Phycoerythrin (PE) conjugate (Invitrogen, S21388). Antibodies were stored at 4° C. until use. 5×10⁵ Clone No.3 of human TNFR2⁺ Jurkat cells were distributed each well and blocked with human TruStain FcX™ (Biolegend, 422302) for 10 minutes at room temperature before stained with a serially diluted PE conjugated anti-human TNFR2 antibodies or hIgG1 starting from 50 μg/mL in a 5-fold dilution fashion for 30 minutes at 4° C. PE-anti hTNFR2 (Clone MR2-1, Thermo fisher #TNFR7504) was used as positive control. The geometric mean fluorescent intensity was measured on Sony SA3800 cell analyzer. Data were analyzed using Flowjo Software (Tree star Inc).

[2] = biological target: T2, mouse TNFR2 (R&D systems, 426-R2-050/CF) (mouse, UniProt P25119 23-258); test: ELISA, receptor coated at 1 µg/mL
T2 construct: Bought protein
T2 sequence (looked up): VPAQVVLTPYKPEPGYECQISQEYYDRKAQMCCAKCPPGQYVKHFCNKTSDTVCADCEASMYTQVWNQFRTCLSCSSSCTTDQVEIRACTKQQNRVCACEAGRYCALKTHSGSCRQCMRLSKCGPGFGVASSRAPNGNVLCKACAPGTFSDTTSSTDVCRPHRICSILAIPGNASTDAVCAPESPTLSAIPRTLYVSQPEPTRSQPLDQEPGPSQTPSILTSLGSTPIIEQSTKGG
Method: (§1) Human TNFR2 (Acro Biosystem, TN2-H5227), Human TNFR1 (Acro Biosystem, TN1-H5222), Cynomolgus TNFR2 (Sino Biological, 90102-CO8H) or mouse TNFR2 (R&D systems, 426-R2-050/CF) was coated on high binding polystyrene flat bottom micro-titer plates (Thermo Scientific, 3455) in PBS (PH=7.4, Gibco,10010-031) at 1 μg/mL and 100 μL per well. Plates were incubated at 4° C. overnight.
(§2) Plates were warmed up to room temperature the next day and washed with 200 μL PBS containing 0.1% Tween 20 (Life technologies, 003005) per well for 3 times. Plates were blocked with 200 μL PBS buffer containing 1% BSA (Fisher Scientific, BP1600-100) per well for 1 hour at 37° C. Antibodies was titrated from 5 μg/mL in a 5-fold dilution series, distributed 100 μL per well and incubated at 37° C. for 1 hour. Human IgG1 isotype control (BioxCell, BE0297) was used as negative control. Plates were washed with 200 μL PBS containing 0.1% Tween 20 (Life technologies, 003005) per well for 3 times. Goat anti-Human IgG Fc Secondary Antibody-HRP conjugate (Invitrogen, A18817) were distributed at 0.5μg/mL and 100 μL per well to detect bound antibodies. After 1-hour incubation of secondary antibody at 37° C., plates were washed with 200 μL PBS containing 0.1% Tween 20 (Life technologies, 003005) per well for 3 times. Plates were developed using TMB Substrate Solution (eBioscience, 00-4201-56) and stopped with ELISA stop solution (Invitrogen, SSO4). The level of bound antibodies was determined by reading absorbance at 450 nm. Mouse anti-human TNFR1 antibody (ThermoFisher Scientific, MA1-81005) and goat anti mouse IgG secondary antibody-HRP conjugate (Invitrogen, 62-5520) were used as positive control for human TNFR1 detection. Armenian Hamster anti-mouse TNFR2 antibody (InVivoMab, BE0247) and HRP-Goat anti-Armenian Hamster IgG (H+L) Secondary Antibody (Invitrogen, PA1-32045) were used as positive control for mouse TNFR2 detection.

[3] = biological target: T3, Human TNFR1 (Acro Biosystem, TN1-H5222) (human, UniProt P19438 30-211); test: ELISA, receptor coated at 1 µg/mL
T3 construct: Bought protein; also called TNF receptor type 1; CD120a
T3 sequence (looked up): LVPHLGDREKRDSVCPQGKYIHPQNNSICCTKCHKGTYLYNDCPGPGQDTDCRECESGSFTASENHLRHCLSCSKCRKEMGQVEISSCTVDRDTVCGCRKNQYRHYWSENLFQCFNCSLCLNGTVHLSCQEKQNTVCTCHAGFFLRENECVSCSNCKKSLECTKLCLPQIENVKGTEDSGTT
Method: as §1, §2

[4] = biological target: T4, rat TNFR2 (R&D systems, 8348-R2-050) (rat, UniProt Q80WY6 23-258); test: ELISA, receptor coated at 1 µg/ml
T4 construct: Bought protein
T4 sequence (looked up): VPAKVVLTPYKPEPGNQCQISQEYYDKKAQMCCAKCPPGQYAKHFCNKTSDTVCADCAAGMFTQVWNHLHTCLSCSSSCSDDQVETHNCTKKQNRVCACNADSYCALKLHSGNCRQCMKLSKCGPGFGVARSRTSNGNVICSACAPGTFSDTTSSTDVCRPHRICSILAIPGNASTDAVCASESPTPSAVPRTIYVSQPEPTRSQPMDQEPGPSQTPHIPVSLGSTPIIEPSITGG
Method: Plates were incubated at 4° C. overnight. Antibodies was titrated from 100 μg/ml in a 5-fold dilution series, and distributed 100 μL, per well and incubated at 37° C. for 1 hour. Human IgG1 isotype control (BioxCell, BE0297) was used as negative control. TNFR2 Polyclonal Antibody (Invitrogen, PAS-80159) and HRP conjugated Goat anti-Rabbit IgG Fc Secondary Antibody (Invitrogen, A16116) were used as positive control for rat TNFR2 detection.

[5] = biological target: T5, His tagged human TNFR2 ECD (Acro Biosystem, TN2-H5227) (human, UniProt P20333 23-257); test: ELISA, receptor coated at 1 µg/mL, antibody titrated from 5 µg/mL
T5 construct: extracellular domain; Bought protein; also called TNFR2-His; hTNFR2-His; not shown: His tag
T5 sequence (looked up): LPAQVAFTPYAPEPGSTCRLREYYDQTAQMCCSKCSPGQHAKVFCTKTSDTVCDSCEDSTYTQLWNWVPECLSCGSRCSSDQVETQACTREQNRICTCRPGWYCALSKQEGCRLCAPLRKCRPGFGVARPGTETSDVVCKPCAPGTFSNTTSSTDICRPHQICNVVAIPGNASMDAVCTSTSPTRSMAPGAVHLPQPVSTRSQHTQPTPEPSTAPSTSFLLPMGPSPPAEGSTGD
Method: as §1, §2

| Binder | binding result [1] | binding result [2] | binding result [3] | binding result [4] | binding result [5] |
| --- | --- | --- | --- | --- | --- |
| TN36-3 (antibody, human IgG1, V domains shown, Humanized; also called AL2/AL9) VH: EVQLVESGGGLIQPGGSLRLSCAASGFSLSSSAVSWVRQAPGKGLEWIGAIGSGGTSYYSNWAKSRFTISRDNSKNTLYLQMNSLRAEDTAVYYCARDPNSSDYPYGAYGMGLWGRGTLVTVSS VL: DIQMTQSPSSLSASVGDRVTITCQVSQSISSYLSWYQQKPGKPPKLLIYYASTLASGVPSRFSGSGSGTDFTLTISSLQPEDFATYYCQQGYITSNVGNAFGGGTKVEIK | binds | no binding (tested: titrated from 5 µg/mL) | no binding (tested: titrated from 5 µg/mL) | no binding (tested: titrated from 100 µg/ml) | binds |
| TN36-8 (antibody, human IgG1, V domains shown, Humanized; also called AL3/AL10) VH: EVQLVESGGGLIQPGGSLRLSCAASGFSLSSSAVSWVRQAPGKGLEWIGAIGSGGTSYYSNWAKSRFTISRDNSKNTLYLQMNSLRAEDTAVYFCARDPNSSDYPYGAYGMGLWGRGTLVTVSS VL: DIQMTQSPSFLSASVGDRVTITCQVSQSISSYLSWYQQKPGKAPKLLIYYASTLASGVPSRFSGSGSGTDFTLTISSLQPEDFATYYCQQGYITSNVGNAFGGGTKVEIK | binds | no binding (tested: titrated from 5 µg/mL) | no binding (tested: titrated from 5 µg/mL) | no binding (tested: titrated from 100 µg/ml) | binds |
| TN36-5 (antibody, human IgG1, V domains shown, Humanized; also called AL2/AL11) VH: EVQLVESGGGLIQPGGSLRLSCAASGFSLSSSAVSWVRQAPGKGLEWIGAIGSGGTSYYSNWAKSRFTISRDNSKNTLYLQMNSLRAEDTAVYYCARDPNSSDYPYGAYGMGLWGRGTLVTVSS VL: DIQLTQSPSFLSASVGDRVTITCQVSQSISSYLSWYQQKPGKAPKLLIYYASTLASGVPSRFSGSGSGTEFTLTISSLQPEDFATYYCQQGYITSNVGNAFGGGTKVEIK | binds | no binding (tested: titrated from 5 µg/mL) | no binding (tested: titrated from 5 µg/mL) | no binding (tested: titrated from 100 µg/ml) | binds |
| TN36-9 (antibody, human IgG1, V domains shown, Humanized; also called AL3/AL11) VH: EVQLVESGGGLIQPGGSLRLSCAASGFSLSSSAVSWVRQAPGKGLEWIGAIGSGGTSYYSNWAKSRFTISRDNSKNTLYLQMNSLRAEDTAVYFCARDPNSSDYPYGAYGMGLWGRGTLVTVSS VL: DIQLTQSPSFLSASVGDRVTITCQVSQSISSYLSWYQQKPGKAPKLLIYYASTLASGVPSRFSGSGSGTEFTLTISSLQPEDFATYYCQQGYITSNVGNAFGGGTKVEIK | binds | no binding (tested: titrated from 5 µg/mL) | no binding (tested: titrated from 5 µg/mL) | no binding (tested: titrated from 100 µg/ml) | binds |
| TN36-7 (antibody, human IgG1, V domains shown, Humanized; also called AL3/AL9) VH: EVQLVESGGGLIQPGGSLRLSCAASGFSLSSSAVSWVRQAPGKGLEWIGAIGSGGTSYYSNWAKSRFTISRDNSKNTLYLQMNSLRAEDTAVYFCARDPNSSDYPYGAYGMGLWGRGTLVTVSS VL: DIQMTQSPSSLSASVGDRVTITCQVSQSISSYLSWYQQKPGKPPKLLIYYASTLASGVPSRFSGSGSGTDFTLTISSLQPEDFATYYCQQGYITSNVGNAFGGGTKVEIK | binds | no binding (tested: titrated from 5 µg/mL) | no binding (tested: titrated from 5 µg/mL) | no binding (tested: titrated from 100 µg/ml) | binds |
| TN36-4 (antibody, human IgG1, V domains shown, Humanized; also called AL2/AL10) VH: EVQLVESGGGLIQPGGSLRLSCAASGFSLSSSAVSWVRQAPGKGLEWIGAIGSGGTSYYSNWAKSRFTISRDNSKNTLYLQMNSLRAEDTAVYYCARDPNSSDYPYGAYGMGLWGRGTLVTVSS VL: DIQMTQSPSFLSASVGDRVTITCQVSQSISSYLSWYQQKPGKAPKLLIYYASTLASGVPSRFSGSGSGTDFTLTISSLQPEDFATYYCQQGYITSNVGNAFGGGTKVEIK | binds | no binding (tested: titrated from 5 µg/mL) | no binding (tested: titrated from 5 µg/mL) | no binding (tested: titrated from 100 µg/ml) | binds |
| TN36-6 (antibody, human IgG1, V domains shown, Humanized; also called AL3/AL8) VH: EVQLVESGGGLIQPGGSLRLSCAASGFSLSSSAVSWVRQAPGKGLEWIGAIGSGGTSYYSNWAKSRFTISRDNSKNTLYLQMNSLRAEDTAVYFCARDPNSSDYPYGAYGMGLWGRGTLVTVSS VL: DIQMTQSPSSLSASVGDRVTITCQVSQSISSYLSWYQQKPGKAPKLLIYYASTLASGVPSRFSGSGSGTDFTLTISSLQPEDFATYYCQQGYITSNVGNAFGGGTKVEIK | binds | no binding (tested: titrated from 5 µg/mL) | no binding (tested: titrated from 5 µg/mL) | no binding (tested: titrated from 100 µg/ml) | binds |
